Data on 2 molecules can be found in patent publication US20050272090, “Nucleic acid binding of multi-zinc finger transcription factors” (published 2005).

Some results are limits rather than exact numbers.

The target of data set [1] is T1, SIP1 full length in cells (Mus musculus) (UniProt Q9R0G7).
T1 sequence: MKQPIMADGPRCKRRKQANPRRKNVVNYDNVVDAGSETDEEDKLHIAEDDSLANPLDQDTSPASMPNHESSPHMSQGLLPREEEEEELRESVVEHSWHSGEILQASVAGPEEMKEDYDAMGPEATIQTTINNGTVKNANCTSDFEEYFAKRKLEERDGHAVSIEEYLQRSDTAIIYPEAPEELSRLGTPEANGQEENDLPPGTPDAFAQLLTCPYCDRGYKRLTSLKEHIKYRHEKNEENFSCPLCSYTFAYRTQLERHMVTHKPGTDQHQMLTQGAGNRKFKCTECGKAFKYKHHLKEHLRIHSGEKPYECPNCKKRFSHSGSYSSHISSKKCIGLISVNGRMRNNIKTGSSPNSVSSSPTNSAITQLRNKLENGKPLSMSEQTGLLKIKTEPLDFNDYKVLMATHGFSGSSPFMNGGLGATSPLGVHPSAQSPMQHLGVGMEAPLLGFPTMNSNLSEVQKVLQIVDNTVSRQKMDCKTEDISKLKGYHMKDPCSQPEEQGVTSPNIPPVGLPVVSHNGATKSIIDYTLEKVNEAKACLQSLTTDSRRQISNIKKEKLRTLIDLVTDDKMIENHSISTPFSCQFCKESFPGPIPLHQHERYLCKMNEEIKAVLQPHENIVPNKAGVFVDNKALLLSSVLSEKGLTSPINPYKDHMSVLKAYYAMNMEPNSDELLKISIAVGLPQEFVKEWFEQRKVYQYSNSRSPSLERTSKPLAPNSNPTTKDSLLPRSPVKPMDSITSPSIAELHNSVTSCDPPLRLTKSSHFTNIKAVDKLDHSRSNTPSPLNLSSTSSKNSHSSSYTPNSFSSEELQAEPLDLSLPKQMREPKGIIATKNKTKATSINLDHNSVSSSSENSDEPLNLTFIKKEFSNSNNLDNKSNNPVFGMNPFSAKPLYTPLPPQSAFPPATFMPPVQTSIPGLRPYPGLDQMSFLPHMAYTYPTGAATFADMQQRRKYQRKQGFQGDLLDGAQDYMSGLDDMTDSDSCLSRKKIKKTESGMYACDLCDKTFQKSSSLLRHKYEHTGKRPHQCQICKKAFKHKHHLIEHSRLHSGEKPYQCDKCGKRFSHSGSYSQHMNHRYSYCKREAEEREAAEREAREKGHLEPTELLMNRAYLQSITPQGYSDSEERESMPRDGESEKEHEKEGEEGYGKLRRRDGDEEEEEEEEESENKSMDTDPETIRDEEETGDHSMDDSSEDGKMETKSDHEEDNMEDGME
Nature of the data set: cell_activity. As to conditions: luciferase reporter in NMe, MDCK, MCF7/AZ. A general note: A reporter such as luciferase makes a cellular process visible.

The target of data set [2] is T2, SIP1 full length (SIP1FS) (Mus musculus, UniProt Q9R0G7 Q9R0G7:1-1215).
T2 sequence: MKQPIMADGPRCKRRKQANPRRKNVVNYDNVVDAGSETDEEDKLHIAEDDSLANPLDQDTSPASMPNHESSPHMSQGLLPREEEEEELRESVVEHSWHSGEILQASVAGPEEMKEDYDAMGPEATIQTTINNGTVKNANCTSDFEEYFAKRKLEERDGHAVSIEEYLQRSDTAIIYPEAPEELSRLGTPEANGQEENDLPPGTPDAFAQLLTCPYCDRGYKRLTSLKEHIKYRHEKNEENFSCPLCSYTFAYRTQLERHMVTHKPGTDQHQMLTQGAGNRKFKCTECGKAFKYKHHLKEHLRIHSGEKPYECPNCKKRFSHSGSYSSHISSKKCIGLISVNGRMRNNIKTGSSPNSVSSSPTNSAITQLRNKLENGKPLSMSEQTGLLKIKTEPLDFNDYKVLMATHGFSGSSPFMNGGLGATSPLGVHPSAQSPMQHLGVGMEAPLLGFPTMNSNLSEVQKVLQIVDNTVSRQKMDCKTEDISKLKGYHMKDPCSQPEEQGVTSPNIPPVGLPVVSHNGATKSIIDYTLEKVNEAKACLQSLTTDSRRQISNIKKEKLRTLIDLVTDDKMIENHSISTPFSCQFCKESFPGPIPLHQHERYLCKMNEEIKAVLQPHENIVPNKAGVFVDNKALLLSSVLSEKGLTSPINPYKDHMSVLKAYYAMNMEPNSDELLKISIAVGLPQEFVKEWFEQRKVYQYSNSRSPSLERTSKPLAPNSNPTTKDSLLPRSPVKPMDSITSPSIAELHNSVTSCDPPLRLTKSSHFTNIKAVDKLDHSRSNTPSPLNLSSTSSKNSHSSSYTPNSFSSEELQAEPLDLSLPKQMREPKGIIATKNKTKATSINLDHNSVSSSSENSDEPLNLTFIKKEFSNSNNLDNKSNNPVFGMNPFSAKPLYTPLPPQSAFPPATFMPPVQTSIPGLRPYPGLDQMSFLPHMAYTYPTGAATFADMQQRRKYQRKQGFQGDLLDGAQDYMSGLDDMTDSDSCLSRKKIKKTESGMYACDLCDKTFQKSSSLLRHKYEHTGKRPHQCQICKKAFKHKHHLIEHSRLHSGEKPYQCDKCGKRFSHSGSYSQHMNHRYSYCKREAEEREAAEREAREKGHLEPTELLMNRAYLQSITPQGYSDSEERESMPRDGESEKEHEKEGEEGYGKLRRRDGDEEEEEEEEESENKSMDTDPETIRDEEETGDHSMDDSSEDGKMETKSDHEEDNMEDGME
Nature of the data set: EMSA; affinity relative to SIP1CZF, estimated from expression levels. As to conditions: tags: N-terminal Myc6 (pCS3), COS1 cell extract; label: 32P. The protocol:
The Xbra-WT oligonucleotide covers the region from −344 to −294 of the Xbra2 promoter (16). The region between −412 to −352 of the α4-integrin promoter is present within the α4I-WT oligonucleotide (26). The Ecad-WT probe contains the region between −86 to −17 of the human Ecad promoter (2). Double-stranded oligonucleotides were labeled with [³²P]-γ-ATP and T4 polynucleotide kinase (New England Biolabs). Total cell extracts were prepared from COS1 cells (25) transfected with different pCS3 vectors allowing synthesis of full length SIP1, full length δEF1, and different mutant forms of SIP1 (25), or co-production of equal amounts of Myc-tagged SP1 and FLAG-tagged SIP1. GST-SIP1 fusion proteins were purified from E. coli extract using the GST purification module (Pharmacia), and tested in gel retardation. The DNA binding assay (20 μl) was performed at 25° C., with 1 μg of COS1 total cell protein, 1 μg of poly dI-dC, 10 pg of ³²P-labeled double-stranded oligonucleotide (approx. 10⁴ Cerenkov counts) in the δEF1 binding buffer described previously (30). For supershift experiments, the extracts were incubated with anti-Myc (Santa Cruz) or anti-FLAG (Kodak) antibodies. For competition, an excess of unlabeled double-stranded oligonucleotides was added together with the labeled probe. […]

Molecule E-cadherin promoter reporter displayed an activity (% decrease of promoter activity) in data set [1] of 80.

B1: Xbra-WT (dsDNA)
DNA 1: ATCCAGGCCACCTAAAATATAGAATGATAAAGTGACCAGGTGTCAGTTCT
DNA 2: AGAACTGACACCTGGTCACTTTATCATTCTATATTTTAGGTGGCCTGGAT
Turning to B1, the binding signal in data set [2] is not below 50 fold.
